The results in this text go back to patent US20210061861A1, “D-PEPTIDIC COMPOUNDS FOR VEGF” (Reflexion Pharmaceuticals, Inc., priority 2019, published 2021).

Bridges are numbered along the chain shown (N, C = ends). Where no end group is shown, it is not given here. [ ]: non-standard residue; d: D form.

Assay [1] deals with T1, VEGF-A binding to VEGFR1 receptor (Homo sapiens, UniProt P15692).
T1 sequence (P15692 214-315 limits assumed): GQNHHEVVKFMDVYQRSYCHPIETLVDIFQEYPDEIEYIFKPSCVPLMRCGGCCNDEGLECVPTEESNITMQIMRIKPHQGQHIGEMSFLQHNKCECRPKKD
Description: VEGF-A:VEGFR1 inhibition in Octet assay. The settings on record: for inhibition at 0.08 µM: read-out: % inhibition at 80 nM compound, D-peptidic compounds. Format: biochemical. In general terms: In BLI a coated tip is dipped into the sample, and binding shifts an interference pattern.
Description: Compounds of interest were assessed for inhibition of VEGF-A:VEGFR1 in an Octet assay.
The resulting dimeric compounds were assayed for VEGF-A inhibition activity in an octet assay.

Assay [2] deals with VEGF-A signaling through VEGFR2. Briefly: VEGFR2 luciferase reporter cell signaling assay (KDR/NFAT-RE HEK293). Format: cell-based. Conditions: 150 pM VEGF-A; read-out: IC50, inhibition of VEGFR2 signaling (luciferase). On the technique in general: A reporter such as luciferase makes a cellular process visible.
Description: Here VEGF-A activates VEGFR2 signaling in 293 cells resulting in luciferase expression as a functional readout. Inhibition of VEGF-A signaling in this system results in a loss of luciferase signal.
Measurement of VEGF cellular signaling was performed using the VEGF Bioassay (Promega). Briefly, HEK293 cells are engineered to express VEGFR-2 coupled to a luciferase response element (KDR/NFAT-RE HEK293). VEGF signaling through VEGFR-2 mediates expression of luciferase which can be quantified using bioluminescence. […] Following incubation Bio-Glo is added to wells according to the manufacturer's protocol and relative luminescence units (RLUs) were measured on a PerkinElmer 2300 Enspire Multimode plate reader. Data plotted are mean±standard deviation of triplicate measurements. IC50 values were derived from 3-parameter fits using Prism (GraphPad) and error reported are derived from fits.
For assay [3], the system named is HUVEC cell proliferation. Conditions: read-out: IC50 for inhibition of cell proliferation in response to VEGF signaling; HUVEC, recombinant VEGF-A.
Description: Here, HUVEC cell proliferation is increased in the presence of recombinant VEGF-A and antagonist compounds that block VEGF-A signaling reduce HUVEC cell proliferation.
The target of assay [4] is T2, VEGF-A (Homo sapiens, UniProt P15692).
T2 sequence (P15692 214-315): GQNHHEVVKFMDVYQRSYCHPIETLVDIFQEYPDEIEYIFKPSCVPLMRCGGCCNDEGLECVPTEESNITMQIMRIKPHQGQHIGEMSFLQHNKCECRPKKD
The settings on record: 5 μM 978336 to saturation, then 5 μM 978336 plus 1 μM 11055.

Assay [5] concerns the target T3, L-VEGF-A (Homo sapiens, UniProt P15692).
T3 construct: Biotinylated VEGF-A(8-109) was immobilized on a biotin CAPture chip
Briefly: ka (10^6/M^-1s^-1).

Assay [6] deals with T3, L-VEGF-A. Description: kd (s^-1).
The target of assay [7] is D-VEGF-A (8-109), synthetic mirror-image protein (Homo sapiens (Human)) (UniProt P15692). Briefly: competitive phage ELISA; L-peptidic compound on D-VEGF-A. Background: ELISA stands for enzyme-linked immunosorbent assay.
For assay [8] the target is unchanged. Briefly: SPR; L-peptidic compound on D-VEGF-A.
For assay [9], the target named is VEGF-A (form not stated) (UniProt P15692). Description: Octet; inhibition of VEGF-A (10 nM) binding to VEGFR1.
For assay [10], the target named is T4, Biotinylated human VEGF-A121 (human, UniProt P15692-9 27-147, biotinylated).
T4 construct: Bought; also called VEGF-A121-biot
T4 sequence (looked up): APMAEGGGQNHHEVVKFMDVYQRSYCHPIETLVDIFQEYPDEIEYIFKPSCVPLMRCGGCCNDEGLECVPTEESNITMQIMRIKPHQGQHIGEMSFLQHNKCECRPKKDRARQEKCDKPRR
Description: equilibrium VEGF-A121/VEGFR1 blocking ELISA; soluble VEGFR1-Fc against coated VEGFR1-Fc.

Assay [11] deals with T5, VEGF-A (form not stated) (UniProt P15692-9 27-147, limits assumed).
T5 construct: also called biotinylated-VEGF-A; recombinant VEGF-A
T5 sequence (looked up): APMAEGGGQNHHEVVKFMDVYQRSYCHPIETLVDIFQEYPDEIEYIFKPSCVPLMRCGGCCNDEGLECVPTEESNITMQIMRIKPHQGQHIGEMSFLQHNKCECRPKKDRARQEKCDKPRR
Description: equilibrium VEGF-A/VEGFR1 blocking ELISA, 150 pM VEGF-A; soluble VEGFR1-Fc against coated VEGFR1-Fc.

For assay [12], the target named is VEGF-A (form not stated) (UniProt P15692). Description: Octet; inhibition of VEGF-A binding to VEGFR1.
In assay [13] the target is T4, Biotinylated human VEGF-A121. Description: non-equilibrium VEGF-A121 blocking ELISA.
Assay [14] has the same target. Briefly: equilibrium VEGF-A121/VEGFR1 blocking ELISA.
Assay [15] deals with L-VEGF-A (8-109) (Homo sapiens (Human)) (UniProt P15692). Description: SPR.
For assay [16], the target named is VEGF-A (form not stated) (UniProt P15692). Description: equilibrium VEGF-A/VEGFR1 blocking ELISA, 150 pM VEGF-A.
Assay [17] addresses L-VEGF-A (8-109) (Homo sapiens (Human)) (UniProt P15692). Briefly: SPR on natural L-VEGF-A.
The target is the same in assay [18]. Briefly: SPR per Examples 7, 8, 11 (method not named in Table 4).
Assay [19] deals with VEGF-A (form not stated) (UniProt P15692). Briefly: VEGF-A blocking ELISA on coated VEGFR1-Fc.
For assay [20], the target named is L-VEGF-A (8-109) (Homo sapiens (Human)) (UniProt P15692). Briefly: SPR, biotinylated VEGF-A(8-109) on a biotin CAPture chip, D-protein in solution, global single site kinetic fit.
Assay [21] addresses VEGF-A (form not stated) (UniProt P15692). Description: cell-based or functional assay.

Regarding “[dP][dA][dL][dL][dK][dN][dA][dK][dE][dD][dA][dI][dA][dE][dL][dK][dK][dA]G[dI][dT][dE][dP][dH][dV][dI][dS][dF][dI][dN][dH][dA][dP][dY][dV][dS][dH][dV][dN]G[dL][dK][dN][dA][dI][dL]G[dR][dT][dV][dP] [1.1.1.2 (pa, pis), pallknakedaiaelkkaGitephvisfinhapyvshvnGlknailGrtvp]”, the inhibition – broadly, the drop in the measured response relative to a control, in per cent – at 0.08 µM in assay [1] was 18%.

As for “[dT][dI][dD][dQ][dW][dL][dL][dK][dN][dA][dK][dE][dD][dA][dI][dA][dE][dL][dK][dK][dA]G[dI][dT][dE][dP][dH][dV][dI][dS][dF][dI][dN][dH][dA][dP][dY][dV][dS][dH][dV][dN]G[dL][dN][dA][dI][dL]G[dR][dT][dV][dP] [1.1.1(c21a) (-kaha, Grtvp), tidqwllknakedaiaelkkaGitephvisfinhapyvshvnGlnailGrtvp]”, the inhibition at 0.08 µM in assay [1] is 27%.

Take bevacizumab [reference compound]: the IC50 is 0.53 nM in [2] and 0.7 nM in assay [3].

Turning to “tidqwllknakedaiaelkkaGitephvisfinhapyvshvnGlknailkaha [Compound 11055]”, the “binding of 978336 and 11055 together to VEGF-A” value in [4] is listed as “additive binding”.

With “tidqwllknakedaiaelkkaGitephvisfinhapyvshvnGlknailkahac(acetyl)”, the % inhibition – broadly, the relative decrease from the control value, in per cent – at 80 nM compound in assay [1] (D-peptidic compounds) is 68%.

“yhiqwvcknakedaiaelkkaGitephvisfinhapncshvnGlknailkaha ([dY][dH][dI][dQ][dW][dV][dC][dK][dN][dA][dK][dE][dD][dA][dI][dA][dE][dL][dK][dK][dA]G[dI][dT][dE][dP][dH][dV][dI][dS][dF][dI][dN][dH][dA][dP][dN][dC][dS][dH][dV][dN]G[dL][dK][dN][dA][dI][dL][dK][dA][dH][dA]-NH2; disulfide 7-38; not fully specified; printed as yhiqwvcknakedaiaelkkaGitephvisfinhapncshvnGlknailkaha) [Compound 979110]”: the “ka (10^6/M^-1s^-1)” value in assay [5] is 2.14 10^6/M^-1s^-1. Besides, the “kd” value in [6] was 0.0052 s⁻¹.

B1: 1.1.1(c21a) (-tidqw, -kaha, edwyl) (L-peptidic) (designed binder)
chain: LLKNAKEDAIAELKKAGITEPHVISFINHAPYVSHVNGLKNAILEDWYL
Molecule B1 showed an IC50 in [7] of 0.86 to 1.1 nM.

B2: 1.1 (L-peptidic) (designed binder)
chain: TIDQWLLKNAKEDAIAELKKAGITEDHVFNFINHAPYVSHVNGLKNAILKAHA
Take B2: the IC50 in assay [7] lay within 100 to 105 nM. The Kd (usually the concentration at which binding is half-saturated) in assay [8] stood at 140 nM.

B3: 1.1 (-kaha, edyl) (L-peptidic) (designed binder)
chain: TIDQWLLKNAKEDAIAELKKAGITEDHVFNFINHAPYVSHVNGLKNAILEDYL
In assay [7], B3 returned an IC50 of 5 nM.

B4: 1.1 (-kaha, adfl) (L-peptidic) (designed binder)
chain: TIDQWLLKNAKEDAIAELKKAGITEDHVFNFINHAPYVSHVNGLKNAILADFL
B4: the IC50 in assay [7] was 12 nM.

B5: 1.1 (-kaha, GehGsp) (L-peptidic) (designed binder)
chain: TIDQWLLKNAKEDAIAELKKAGITEDHVFNFINHAPYVSHVNGLKNAILGEHGSP
As to B5, the IC50 in assay [7] came to 14 nM.

B6: 1.1 (D-peptidic) (designed binder)
chain: [dT][dI][dD][dQ][dW][dL][dL][dK][dN][dA][dK][dE][dD][dA][dI][dA][dE][dL][dK][dK][dA]G[dI][dT][dE][dD][dH][dV][dF][dN][dF][dI][dN][dH][dA][dP][dY][dV][dS][dH][dV][dN]G[dL][dK][dN][dA][dI][dL][dK][dA][dH][dA]
Turning to B6, the IC50 in assay [9] worked out at 105 nM.

B7: VEGFR1-Fc (Fc fusion, UniProt P17948 27-756, looked up)
chain: SKLKDPELSLKGTQHIMQAGQTLHLQCRGEAAHKWSLPEMVSKESERLSITKSACGRNGKQFCSTLTLNTAQANHTGFYSCKYLAVPTSKKKETESAIYIFISDTGRPFVEMYSEIPEIIHMTEGRELVIPCRVTSPNITVTLKKFPLDTLIPDGKRIIWDSRKGFIISNATYKEIGLLTCEATVNGHLYKTNYLTHRQTNTIIDVQISTPRPVKLLRGHTLVLNCTATTPLNTRVQMTWSYPDEKNKRASVRRRIDQSNSHANIFYSVLTIDKMQNKDKGLYTCRVRSGPSFKSVNTSVHIYDKAFITVKHRKQQVLETVAGKRSYRLSMKVKAFPSPEVVWLKDGLPATEKSARYLTRGYSLIIKDVTEEDAGNYTILLSIKQSNVFKNLTATLIVNVKPQIYEKAVSSFPDPALYPLGSRQILTCTAYGIPQPTIKWFWHPCNHNHSEARCDFCSNNEESFILDADSNMGNRIESITQRMAIIEGKNKMASTLVVADSRISGIYICIASNKVGTVGRNISFYITDVPNGFHVNLEKMPTEGEDLKLSCTVNKFLYRDVTWILLRTVNNRTMHYSISKQKMAITKEHSITLNLTIMNVSLQDSGTYACRARNVYTGEEILQKKEITIRDQEAPYLLRNLSDHTVAISSSTTLDCHANGVPEPQITWFKNNHKIQQEPGIILGPGSSTLFIERVTEEDEGVYHCKATNQKGSVESSAYLTVQGTSDKSN
notes: Bought; also called VEGFR1-Fc fusion; soluble decoy receptor VEGFR1-Fc; not shown: Fc part
With B7, the IC50 in assay [10] is 0.23 nM; in assay [11], 0.22 nM.

B8: 1.1 (-tidqw) (L-peptidic) (designed binder)
chain: LLKNAKEDAIAELKKAGITEDHVFNFINHAPYVSHVNGLKNAILKAHA
In turn, B8 had a Kd in [8] of 450 nM.

B9: 1.1.1.2 (pa, pis) (D-peptidic) (designed binder)
chain: [dP][dA][dL][dL][dK][dN][dA][dK][dE][dD][dA][dI][dA][dE][dL][dK][dK][dA]G[dI][dT][dE][dP][dH][dV][dI][dS][dF][dI][dN][dH][dA][dP][dY][dV][dS][dH][dV][dN]G[dL][dK][dN][dA][dI][dL]G[dR][dT][dV][dP]
As to B9, the % inhibition at 80 nM compound in assay [12] stood at 18%.

B10: RFX-979110 (designed binder)
chain: [dY][dH][dI][dQ][dW][dV][dC][dK][dN][dA][dK][dE][dD][dA][dI][dA][dE][dL][dK][dK][dA]G[dI][dT][dE][dP][dH][dV][dI][dS][dF][dI][dN][dH][dA][dP][dN][dC][dS][dH][dV][dN]G[dL][dK][dN][dA][dI][dL][dK][dA][dH][dA]-NH2
modifications: disulfide 7-38; not fully specified
As for B10, the fold improvement of IC50 over RFX-11055 in assay [13] worked out at 15 fold. The IC50 in [14] was 7.6 nM. Besides, in assay [15], the fold affinity improvement over RFX-11055 is 19 fold and the fold improvement of VEGF binding over 11055 worked out at 10 fold. The molecule further displayed an IC50 in [16] of 7 nM. In assay [17], this molecule yielded a Kd of 3.6 nM. Further, in assay [18], the Kd was 2.3 nM. In addition, the fold better IC50 than 11055 in assay [19] was determined as 14.8 fold. For the same molecule, in [20], the koff – broadly, the first-order rate constant of dissociation – was 0.0052 s⁻¹ and the kon – broadly, the second-order rate constant of association – was found to be 2.14e+06 M⁻¹ s⁻¹. Moreover, in assay [21], the HUVEC cell proliferation, apparent IC50 was determined as 131 nM; the HUVEC cell proliferation, potency against 11055 worked out at 4 fold; the fold decrease in HUVEC cell proliferation, potency against bevacizumab worked out at 185 fold.
